In patent US20210221894A1 (DRAGONFLY THERAPEUTICS, published 2021):

T1: recombinant human NKG2D-Fc fusion protein (human, UniProt P26718 73-216)
T1 construct: extracellular domain; also called NKG2D-Fc-biotin; not shown: human IgG1 Fc domain
T1 sequence (looked up): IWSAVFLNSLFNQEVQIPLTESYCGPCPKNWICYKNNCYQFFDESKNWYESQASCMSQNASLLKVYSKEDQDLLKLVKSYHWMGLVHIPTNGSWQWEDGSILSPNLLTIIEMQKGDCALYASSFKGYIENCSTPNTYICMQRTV

T2: recombinant mouse NKG2D-Fc fusion protein (mouse; human, UniProt O54709 90-232)
T2 construct: extracellular domain; also called Mouse NKG2D-Fc-biotin; not shown: human IgG1 Fc domain
T2 sequence (looked up): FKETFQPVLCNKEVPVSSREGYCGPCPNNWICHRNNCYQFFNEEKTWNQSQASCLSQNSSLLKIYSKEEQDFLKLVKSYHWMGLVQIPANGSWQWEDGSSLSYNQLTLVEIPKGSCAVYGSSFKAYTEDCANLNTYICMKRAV

T3: recombinant cynomolgus NKG2D-Fc fusion protein (cynomolgus; human, UniProt P61252 73-216)
T3 construct: extracellular domain; not shown: human IgG1 Fc domain
T3 sequence (looked up): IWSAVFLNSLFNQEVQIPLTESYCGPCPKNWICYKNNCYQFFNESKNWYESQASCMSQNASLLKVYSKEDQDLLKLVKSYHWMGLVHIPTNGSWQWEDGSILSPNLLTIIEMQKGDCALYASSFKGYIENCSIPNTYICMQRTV

T4: full-length form of the extracellular portion of DLL3 expressed on transduced RPMI-8226 cells (Homo sapiens (Human), UniProt Q9NYJ7 27-492)
T4 construct: also called DLL3-D1-6; DLL3+ RPMI-8226 cells
T4 sequence: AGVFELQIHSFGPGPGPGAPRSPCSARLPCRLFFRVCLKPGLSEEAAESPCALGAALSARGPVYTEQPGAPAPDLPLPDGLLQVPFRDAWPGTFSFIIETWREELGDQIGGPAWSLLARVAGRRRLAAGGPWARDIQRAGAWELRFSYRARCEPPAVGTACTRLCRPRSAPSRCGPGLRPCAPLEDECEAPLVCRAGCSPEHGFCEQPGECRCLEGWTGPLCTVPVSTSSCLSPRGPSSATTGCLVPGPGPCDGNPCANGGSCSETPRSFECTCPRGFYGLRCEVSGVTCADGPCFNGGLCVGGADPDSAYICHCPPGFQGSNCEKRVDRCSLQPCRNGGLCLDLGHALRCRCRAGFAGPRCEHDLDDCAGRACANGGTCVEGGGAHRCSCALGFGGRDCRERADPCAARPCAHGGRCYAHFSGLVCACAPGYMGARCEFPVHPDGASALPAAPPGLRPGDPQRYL

T5: human DLL3-His (human, UniProt Q9NYJ7 27-492)
T5 construct: also called hDLL3
T5 sequence: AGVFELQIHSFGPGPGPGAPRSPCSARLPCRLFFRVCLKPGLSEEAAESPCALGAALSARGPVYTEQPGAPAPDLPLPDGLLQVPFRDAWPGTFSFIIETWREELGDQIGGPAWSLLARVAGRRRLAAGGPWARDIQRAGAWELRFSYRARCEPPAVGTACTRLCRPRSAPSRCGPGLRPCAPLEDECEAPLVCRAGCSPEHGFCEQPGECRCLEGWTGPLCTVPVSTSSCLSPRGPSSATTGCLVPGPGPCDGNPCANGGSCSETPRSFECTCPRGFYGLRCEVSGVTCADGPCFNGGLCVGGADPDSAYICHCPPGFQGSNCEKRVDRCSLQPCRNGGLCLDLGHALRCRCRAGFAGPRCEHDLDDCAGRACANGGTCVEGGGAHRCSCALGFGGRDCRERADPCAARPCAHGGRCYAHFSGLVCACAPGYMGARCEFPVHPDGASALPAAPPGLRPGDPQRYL


Legend:
[1] = target: T1, recombinant human NKG2D-Fc fusion …; assay: competition ELISA: plate-bound human NKG2D-Fc, saturating ULBP-6-His-biotin as blocked ligand, streptavidin-HRP
Description: Recombinant human NKG2D-Fc proteins were adsorbed to wells of a microplate, and the wells were blocked with bovine serum albumin to reduce non-specific binding. A saturating concentration of ULBP-6-His-biotin was added to the wells, followed by addition of the NKG2D-binding domain clones. After a 2-hour incubation, wells were washed and ULBP-6-His-biotin that remained bound to the NKG2D-Fc coated wells was detected by streptavidin-conjugated to horseradish peroxidase and TMB substrate. Absorbance was measured at 450 nm and corrected at […]. After subtracting background, specific binding of NKG2D-binding domains to the NKG2D-Fc proteins was calculated from the percentage of ULBP-6-His-biotin that was blocked from binding to the NKG2D-Fc proteins in wells.

[2] = target: T1, recombinant human NKG2D-Fc fusion …; assay: ELISA, plate-bound recombinant human NKG2D-Fc, anti-human kappa-HRP/TMB
From the text: (§1) The nucleic acid sequences of human, mouse or cynomolgus NKG2D ectodomains were fused with nucleic acid sequences encoding human IgG1 Fc domains and introduced into mammalian cells to be expressed. After purification, NKG2D-Fc fusion proteins were adsorbed to wells of microplates. After blocking the wells with bovine serum albumin to prevent non-specific binding, NKG2D-binding domains were titrated and added to the wells pre-adsorbed with NKG2D-Fc fusion proteins. Primary antibody binding was detected using a secondary antibody which was conjugated to horseradish peroxidase and specifically recognizes a human kappa light chain to avoid Fc cross-reactivity. 3,3′,5,5′-Tetramethylbenzidine (TMB), a substrate for horseradish peroxidase, was added to the wells to visualize the binding signal, whose absorbance was measured at 450 nm and corrected at […]. An NKG2D-binding domain clone, an isotype control or a positive control (comprising heavy chain and light chain variable domains selected from SEQ ID NOs:101-104, or anti-mouse NKG2D clones MI-6 and CX-5, eBioscience, San Diego, Calif.) was added to each well.

[3] = target: T2, recombinant mouse NKG2D-Fc fusion …; assay: competition ELISA: plate-bound mouse Rae-1 delta-Fc, mouse NKG2D-Fc-biotin in solution; blocked ligand Rae-1 delta
Description: Recombinant mouse Rae-1 delta-Fc (R&D Systems, Minneapolis, Minn.) was adsorbed to wells of a microplate, and the wells were blocked with bovine serum albumin to reduce non-specific binding. Mouse NKG2D-Fc-biotin was added to the wells followed by NKG2D-binding domains. After incubation and washing, NKG2D-Fc-biotin that remained bound to Rae-1delta-Fc coated wells was detected using streptavidin-HRP and TMB substrate. Absorbance was measured at 450 nm and corrected at […]. After subtracting background, specific binding of NKG2D-binding domains to the NKG2D-Fc proteins was calculated from the percentage of NKG2D-Fc-biotin that was blocked from binding to the Rae-1delta-Fc coated wells.

[4] = target: T2, recombinant mouse NKG2D-Fc fusion …; assay: ELISA, plate-bound recombinant mouse NKG2D-Fc, anti-human kappa-HRP/TMB
From the text: as §1

[5] = target: T3, recombinant cynomolgus NKG2D-Fc fusion …; assay: ELISA, plate-bound recombinant cynomolgus NKG2D-Fc, anti-human kappa-HRP/TMB
From the text: as §1

[6] = target: T4, full-length form of the extracellular …; assay: flow cytometry, RPMI-8226 cells transduced to express full-length extracellular DLL3, fluorophore-conjugated anti-human IgG
Description: Anti-DLL3 mAbs were diluted and incubated with DLL3⁺ RPMI-8226 cells. The cells were analyzed by flow cytometry and binding of a mAb was detected using a fluorophore conjugated anti-human IgG secondary antibody.

human DLL3-His = target: T5, human DLL3-His; assay: SPR (Biacore 8K), 37 C, antibody captured on anti-human Fc, DLL3-His 0.411-300 nM injected, 1:1 fit
From the text: The kinetics of binding of different humanized variants and parental murine 5E7 antibody to human DLL3-His was studied by Surface Plasmon Resonance using a Biacore 8K instrument. Briefly, anti-hFc and anti-mFc IgG proteins were covalently immobilized onto different channels of CMS chip to allow simultaneous analysis of human and murine antibodies. m5E7 was captured on the anti-mouse Fc channel and humanized variants were captured on the anti-human Fc channel at a desired capture level of […] in HBS-EP+ buffer supplemented with 0.1% BSA. Three buffer blanks and human DLL3-His (analyte) at concentrations 0.411-300 nM (in three fold dilutions) were injected over the surface with captured murine or humanized 5E7 for 300 second association time and let dissociate for 600 second at a flow rate of 30 μL/min. The surfaces were subjected to regeneration with three 20-second pulses of 10 mM glycine pH 1.70 at a flow rate of 100 μL/min between every concentration of analyte. The experiment was conducted at 37° C. Data were double referenced and a 1:1 fit model was applied to the sensorgrams in the Biacore Insight Evaluation software.
The kinetic parameters of human DLL3-His binding to murine and humanized variants of 5E7 antibody variants were calculated and shown in Table 39.

Binder | IC50 (read off the curve) [1] [nM] | EC50 (read off the curve) [2] [nM] | IC50 (read off the curve) [3] [nM] | EC50 (read off the curve) [4] [nM] | EC50 (read off the curve) [5] [nM] | EC50 (read off the curve) [6] [nM] | Kd (human DLL3-His) [nM] | koff (human DLL3-His) [s⁻¹] | kon (human DLL3-His) [M⁻¹ s⁻¹]
ADI-27740 (antibody, V domains shown, also called A40) VH: QVQLQQWGAGLLKPSETLSLTCAVYGGSFSGYYWSWIRQPPGKGLEWIGEIDHSGSTNYNPSLKSRVTISVDTSKNQFSLKLSSVTAADTAVYYCARARGPWSFDPWGQGTLVTVSS VL: DIQMTQSPSTLSASVGDRVTITCRASQSIGSWLAWYQQKPGKAPKLLIYKASSLESGVPSRFSGSGSGTEFTLTISSLQPDDFATYYCQQYHSFYTFGGGTKVEIK | ~6 | ~0.4 | ~20 | ~0.2 | ~0.3 | – | – | – | –
humanized anti-DLL3 antibody h5E7 (antibody, V domains shown, Expressed as IgG1 mAb: human IgG1 CH1-CH2-CH3 and human constant kappa) VH: QVQLVQSGAEVKKPGASVKVSCKASGFNIKDDYIHWVRQAPGQGLEWMGWIDSENGDTEYASKFQGRVTITADTSANTAYMELSSLRSEDTAVYYCATSSYYSYDLFVYWGQGTLVTVSS VL: DVQMTQSPSSLSASVGDRVTITCKSSQSLLHSNGKTYLNWLQQKPGQAPKLLLYLVSKLESGVPSRFSGSGSGTDYTLTISSLQPEDFATYYCLQTTHLYTFGQGTKLEIK | – | – | – | – | – | ~7 | 8.72 | 0.00697 | 799000
